The values that follow come from patent US20250002943.

In the data set the test system is Bxb1 integrase (serine recombinase) (Mycobacterium phage Bxb1?). In words: cell_activity.

As for “Bxb1 attB site on circularised mNeonGreen cargo”, for the setting “attB on cargo recombined with genomic attP in hiPSCs, 0.01% without cargo and Bxb1 plasmids”, the activity (% mNeonGreen-positive cells) worked out at 11.3.

With “Bxb1 attP site (58 nt, integrated at ACTR10 via ssODN)”, where the note is “attP x attB recombination in hiPSCs, all components delivered with Cas9 RNP, 0.38% without attP ssODN template”, the activity (% mNeonGreen-positive cells) is 11.3.
